Reference: patent EP4497755A1 (Asociación Centro de Investigación Cooperativa en …, dated 2025)

Columns and labels:
[1] = biological target: VSV-G-tagged full-length LRP6 (UniProt O75581); experiment: immunofluorescence colocalization in transfected cells
[2] = biological target: T1, WNT3/3A peptide DSLAIFGPVLDKATRESAC; experiment: peptide ELISA
T1 peptide: DSLAIFGPVLDKATRESAC

[3] = biological target: T2, WNT7A peptide GKELKVGSREAAC; experiment: peptide ELISA
T2 peptide: GKELKVGSREAAC

[4] = biological target: T3, WNT7B peptide GQELRVGSREAAC; experiment: peptide ELISA
T3 peptide: GQELRVGSREAAC

[5] = biological target: T4, WNT9A peptide RASLLKRGFKETAC; experiment: peptide ELISA
T4 peptide: RASLLKRGFKETAC

[6] = biological target: T5, WNT10A peptide YESPIFSRGFRESAC; experiment: peptide ELISA
T5 peptide: YESPIFSRGFRESAC

[7] = biological target: T6, Wnt-11 peptide LLDLERGTRESA (human); experiment: peptide dot blot
T6 construct: also called Wnt-11 amino acids L101-A112
T6 peptide: LLDLERGTRESA

[8] = biological target: T7, Wnt-11 alanine replacement peptide P01 ALDLERGTRESA (human); experiment: peptide ELISA, alanine replacement panel
T7 peptide: ALDLERGTRESA

[9] = biological target: T8, Wnt-11 alanine replacement peptide P02 LADLERGTRESA (human); experiment: peptide ELISA, alanine replacement panel
T8 peptide: LADLERGTRESA

[10] = biological target: T9, Wnt-11 alanine replacement peptide P03 LLALERGTRESA (human); experiment: peptide ELISA, alanine replacement panel
T9 peptide: LLALERGTRESA

[11] = biological target: T10, Wnt-11 alanine replacement peptide P04 LLDAERGTRESA (human); experiment: peptide ELISA, alanine replacement panel
T10 peptide: LLDAERGTRESA

[12] = biological target: T11, Wnt-11 alanine replacement peptide P05 LLDLARGTRESA (human); experiment: peptide ELISA, alanine replacement panel
T11 peptide: LLDLARGTRESA

[13] = biological target: T12, Wnt-11 alanine replacement peptide P06 LLDLEAGTRESA (human); experiment: peptide ELISA, alanine replacement panel
T12 peptide: LLDLEAGTRESA

[14] = biological target: T13, Wnt-11 alanine replacement peptide P07 LLDLERATRESA (human); experiment: peptide ELISA, alanine replacement panel
T13 peptide: LLDLERATRESA

[15] = biological target: T14, Wnt-11 alanine replacement peptide P08 LLDLERGARESA (human); experiment: peptide ELISA, alanine replacement panel
T14 peptide: LLDLERGARESA

[16] = biological target: T15, Wnt-11 alanine replacement peptide P09 LLDLERGTAESA (human); experiment: peptide ELISA, alanine replacement panel
T15 peptide: LLDLERGTAESA

[17] = biological target: T16, Wnt-11 alanine replacement peptide P10 LLDLERGTRASA (human); experiment: peptide ELISA, alanine replacement panel
T16 peptide: LLDLERGTRASA

[18] = biological target: T17, Wnt-11 alanine replacement peptide P11 LLDLERGTREAA (human); experiment: peptide ELISA, alanine replacement panel
T17 peptide: LLDLERGTREAA

[19] = biological target: T18, Wnt-11 peptide LLDLERGTRESAC (human); experiment: peptide dot blot and peptide ELISA (Fig. 6a, b)
T18 construct: The C-terminal cysteine is not part of Wnt-11; also called wt101
T18 peptide: LLDLERGTRESAC

[20] = biological target: T19, human Wnt-11 (wild-type, untagged) (human, UniProt O96014 25-354); experiment: immunofluorescence of non-permeabilized VCaP (Wnt-11 high) and C4-2B (Wnt-11 low) cells
T19 construct: whole, on cells; also called wild-type Wnt-11
T19 sequence (looked up): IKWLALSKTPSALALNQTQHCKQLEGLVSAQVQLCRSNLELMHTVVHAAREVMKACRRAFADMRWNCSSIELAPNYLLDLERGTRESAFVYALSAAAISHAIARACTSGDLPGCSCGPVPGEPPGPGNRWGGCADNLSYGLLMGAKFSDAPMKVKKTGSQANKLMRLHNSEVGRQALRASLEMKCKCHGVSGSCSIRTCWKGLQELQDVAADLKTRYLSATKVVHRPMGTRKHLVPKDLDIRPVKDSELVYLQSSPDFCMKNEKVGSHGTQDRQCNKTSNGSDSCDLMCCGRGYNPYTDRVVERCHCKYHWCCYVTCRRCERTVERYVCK

[21] = biological target: T20, Wnt-11 antibody epitope deletion mutant Wnt-11m (Wnt-11 delta 101-108, untagged) (human, UniProt O96014 25-354); experiment: Ab1 staining and FACS sorting of transfected HEK 293 cells, western blot of Ab1high and Ab1low populations
T20 construct: whole, on cells; also called AE
T20 sequence (looked up): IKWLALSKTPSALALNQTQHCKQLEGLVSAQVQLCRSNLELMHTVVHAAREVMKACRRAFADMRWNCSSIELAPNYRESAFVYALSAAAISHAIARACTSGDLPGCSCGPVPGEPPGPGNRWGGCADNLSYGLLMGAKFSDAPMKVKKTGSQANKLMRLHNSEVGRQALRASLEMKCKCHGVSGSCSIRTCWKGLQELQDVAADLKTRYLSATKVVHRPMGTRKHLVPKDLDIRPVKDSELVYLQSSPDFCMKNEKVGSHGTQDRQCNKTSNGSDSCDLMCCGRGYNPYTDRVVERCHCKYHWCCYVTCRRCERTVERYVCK

[22] = biological target: T6, Wnt-11 peptide LLDLERGTRESA; experiment: peptide ELISA
[23] = biological target: T18, Wnt-11 peptide LLDLERGTRESAC; experiment: peptide dot blot (Fig. 6a)

VSV-G-tagged full-length LRP6, sequence (O75581 other isoform, or with tags, fused parts or gaps limits assumed): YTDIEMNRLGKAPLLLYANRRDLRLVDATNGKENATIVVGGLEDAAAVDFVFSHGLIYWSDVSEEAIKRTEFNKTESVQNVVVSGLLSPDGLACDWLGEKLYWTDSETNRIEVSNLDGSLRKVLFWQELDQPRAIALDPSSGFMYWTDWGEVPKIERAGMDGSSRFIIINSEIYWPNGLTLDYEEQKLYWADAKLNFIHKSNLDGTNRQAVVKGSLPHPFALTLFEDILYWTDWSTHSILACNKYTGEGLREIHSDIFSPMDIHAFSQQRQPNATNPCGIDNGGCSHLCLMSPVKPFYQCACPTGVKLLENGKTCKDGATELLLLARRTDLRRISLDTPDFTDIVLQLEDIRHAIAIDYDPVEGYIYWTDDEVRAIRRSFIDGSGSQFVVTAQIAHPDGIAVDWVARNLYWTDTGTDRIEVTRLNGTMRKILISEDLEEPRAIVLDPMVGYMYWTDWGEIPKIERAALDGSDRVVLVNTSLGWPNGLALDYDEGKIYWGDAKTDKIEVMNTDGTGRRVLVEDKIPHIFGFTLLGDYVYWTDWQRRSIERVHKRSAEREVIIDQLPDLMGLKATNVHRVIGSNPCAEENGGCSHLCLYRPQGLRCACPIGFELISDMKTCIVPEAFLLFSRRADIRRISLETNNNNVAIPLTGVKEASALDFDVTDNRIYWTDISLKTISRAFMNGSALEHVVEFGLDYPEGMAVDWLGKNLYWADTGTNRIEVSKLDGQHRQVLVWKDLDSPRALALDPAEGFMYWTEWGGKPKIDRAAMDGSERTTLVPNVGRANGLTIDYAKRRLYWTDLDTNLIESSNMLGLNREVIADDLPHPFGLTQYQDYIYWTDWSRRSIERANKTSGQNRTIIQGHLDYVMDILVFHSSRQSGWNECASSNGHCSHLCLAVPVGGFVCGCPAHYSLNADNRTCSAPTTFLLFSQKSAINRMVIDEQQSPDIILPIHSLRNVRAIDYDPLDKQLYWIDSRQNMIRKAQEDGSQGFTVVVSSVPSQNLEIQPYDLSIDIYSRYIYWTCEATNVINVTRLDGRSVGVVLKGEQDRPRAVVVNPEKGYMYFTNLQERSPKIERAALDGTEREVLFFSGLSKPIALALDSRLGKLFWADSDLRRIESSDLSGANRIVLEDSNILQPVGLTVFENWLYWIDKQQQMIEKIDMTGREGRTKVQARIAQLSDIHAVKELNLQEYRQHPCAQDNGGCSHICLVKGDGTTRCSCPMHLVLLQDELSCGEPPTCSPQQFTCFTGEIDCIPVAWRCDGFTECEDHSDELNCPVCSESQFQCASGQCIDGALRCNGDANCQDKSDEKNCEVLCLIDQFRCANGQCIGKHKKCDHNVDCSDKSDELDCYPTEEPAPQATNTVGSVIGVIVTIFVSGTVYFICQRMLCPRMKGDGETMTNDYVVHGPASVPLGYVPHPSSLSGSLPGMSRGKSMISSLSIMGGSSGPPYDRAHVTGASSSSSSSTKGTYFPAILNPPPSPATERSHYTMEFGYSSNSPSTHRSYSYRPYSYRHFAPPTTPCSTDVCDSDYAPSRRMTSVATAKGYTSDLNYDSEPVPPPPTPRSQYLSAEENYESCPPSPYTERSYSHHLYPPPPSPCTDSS

B1: human Wnt-11 (wild-type, untagged) (ligand, UniProt O96014 25-354, looked up)
chain: IKWLALSKTPSALALNQTQHCKQLEGLVSAQVQLCRSNLELMHTVVHAAREVMKACRRAFADMRWNCSSIELAPNYLLDLERGTRESAFVYALSAAAISHAIARACTSGDLPGCSCGPVPGEPPGPGNRWGGCADNLSYGLLMGAKFSDAPMKVKKTGSQANKLMRLHNSEVGRQALRASLEMKCKCHGVSGSCSIRTCWKGLQELQDVAADLKTRYLSATKVVHRPMGTRKHLVPKDLDIRPVKDSELVYLQSSPDFCMKNEKVGSHGTQDRQCNKTSNGSDSCDLMCCGRGYNPYTDRVVERCHCKYHWCCYVTCRRCERTVERYVCK
[1]
  colocalization with LRP6, Pearson: 0.6
  colocalization with LRP6, Spearman: 0.67

B2: Wnt-11 antibody epitope deletion mutant Wnt-11m (Wnt-11 delta 101-108, untagged) (ligand, human, UniProt O96014 25-354, looked up)
chain: IKWLALSKTPSALALNQTQHCKQLEGLVSAQVQLCRSNLELMHTVVHAAREVMKACRRAFADMRWNCSSIELAPNYRESAFVYALSAAAISHAIARACTSGDLPGCSCGPVPGEPPGPGNRWGGCADNLSYGLLMGAKFSDAPMKVKKTGSQANKLMRLHNSEVGRQALRASLEMKCKCHGVSGSCSIRTCWKGLQELQDVAADLKTRYLSATKVVHRPMGTRKHLVPKDLDIRPVKDSELVYLQSSPDFCMKNEKVGSHGTQDRQCNKTSNGSDSCDLMCCGRGYNPYTDRVVERCHCKYHWCCYVTCRRCERTVERYVCK
[1]
  colocalization with LRP6, Pearson: 0.4
  colocalization with LRP6, Spearman: 0.46

B3: anti-Wnt-11 rat monoclonal antibody Ab1 (E8) (antibody, rat IgG2a, V domains shown)
VH: EVELVESGGGLVQPGRSLKLSCAASGFTFSDYGMAWVRQTPTKGLEWVASITSGGGNPYYRDSVKGRFTISRDNAKNTQHLQMDSLRSEDTATYYCARHEYYGNYMTCFDYWGQGVMVTVSS
VL: AIVLNQSPSSIVASQGEKVTITCRASLSISSNYLHWYQQKPGAFPKLVIYSTSYRASGVPSRFSGSGSGTSYSFTISRVEAEDVATYYCQQGSSDPLTFGSGTKLEIK
notes: also called anti-Wnt-11-Ab1; Wnt-11 antibody E8
[2]
  binding result: no binding
[3]
  binding result: no binding
[4]
  binding result: no binding
[5]
  binding result: no binding
[6]
  binding result: no binding
[7]
  binding result: binds
[8]
  binding result: no binding
[9]
  binding result: no binding
[10]
  binding result: no binding
[11]
  binding result: no binding
[12]
  binding result: no binding
[13]
  binding result: no binding
[14]
  binding result: binds
[15]
  binding result: binds
[16]
  binding result: binds
[17]
  binding result: binds
[18]
  binding result: binds
[19]
  binding result: binds
[20]
  binding result: binds
[21]
  binding result: no binding (tested: Ab1 at 30 µg/ml)

B4: chimeric anti-Wnt-11 antibody E8h4hk (E8 IgG4k chimeric antibody) (antibody, V domains shown)
VH: EVELVESGGGLVQPGRSLKLSCAASGFTFSDYGMAWVRQTPTKGLEWVASITSGGGNPYYRDSVKGRFTISRDNAKNTQHLQMDSLRSEDTATYYCARHEYYGNYMTCFDYWGQGVMVTVSS
VL: AIVLNQSPSSIVASQGEKVTITCRASLSISSNYLHWYQQKPGAFPKLVIYSTSYRASGVPSRFSGSGSGTSYSFTISRVEAEDVATYYCQQGSSDPLTFGSGTKLEIK
notes: also called chimeric E8 (hIgG4kappa)
[22]
  binding result: binds

B5: anti-Wnt-11 rat monoclonal antibody Ab2 (F10) (antibody, rat IgG2c, V domains shown)
VH: EVQLVESGGGLVQPGRSLKLSCAASGFTFSNYGMAWVRQAPTKGLEWVASINYDGRNTYYRDSVKGRFTISRDNAKSTVYLQMDSLRSEDTATYYCARPQDGVIDAWGQGDSVTVSS
VL: DVVMTQTPVSLPVSLGGQASISCRSSQSLVHSNGNTYLHWYLQKPGQFPQLLIYRVSNRFSGVPDRFSGSGSGTDFTLKISRVESEDLGVYYCLQGTHLPPTFGGGTKLELK
notes: also called anti-Wnt-11-F10; Wnt-11 antibody F10
[7]
  binding result: binds
[23]
  binding result: binds
